Test results reported in patent US9102755B2, “Highly stabilized epidermal growth factor mutants” (PnP Biopharm Co., Ltd., priority 2013, dated 2015).
“Also recorded” adds a separate entry of the source.

Legend:
[1] = Structure and thermal stability (Tm) by circular dichroism; format: physicochemical; conditions: 0.1 mg/ml; for Structure change: circular dichroism 190-250 nm, 20 mM sodium phosphate pH 5.5, 20° C., versus wild-type EGF; for Tm (melting temperature): circular dichroism, 20° C. to 95° C. at 1° C./min
Method: The structure and thermal stability of the purified EGF mutant were measured through a circular dichroism analysis using a J-810 spectrometer (JASCO). As the wild-type EGF, the purified EGF prepared in Example 2 was used. In order to analyze the structure, each EGF was dissolved in 20 mM sodium phosphate (pH 5.5) to be uniformly a final concentration of 0.1 mg/ml. And then, the dissolved EGF solution was added to 0.1 cm cell, and then its structure was analyzed under the conditions of, as 190 nm to 250 nm region, band width 1 nm, response 0.25 sec, data pitch 0.1 nm, scanning speed 20 nm/min, cell length 1 cm, accumulation 8 times, and a temperature of 20° C.
In order to analyze the thermal stability, a wavelength of 200 nm was determined through a comparison analysis of far-UV at the Tm (melting temperature) of 20° C. and 95° C., and progressed in a concentration of 0.1 mg/ml in 0.1 cm cell. As the conditions, it was measured at 20° C. to 95° C. under condition of 1° C./min.
The structure is changed at the band of about 195 nm when generating a folding-unfolding phenomenon. Using it, the melting temperature (Tm) was measured in the range of 20 to 95° C., and thus the accurate Tm value was analyzed. As a result, as for the structure change, most mutants had the similar structure as the wild-type EGF, and thus there were few changes. […] It can be confirmed that the thermal stabilities of M2 and M3 were improved by 87° C.

[2] = Solubility of wild-type and mutant EGFs in 20 mM sodium phosphate (pH 5.5); format: physicochemical; conditions: for Solubility: 1 mg in 1 ml 20 mM sodium phosphate pH 5.5, supernatant, Bradford and UV method; for Solubility (Comparison with wild-type %): 20 mM sodium phosphate pH 5.5, relative to wild-type EGF
Method: 1 mg of the respective wild-type and mutant EGFs prepared was dissolved in 1 ml of 20 mM sodium phosphate (pH 5.5 that is the similarly pH environment as cosmetics). In order to remove undissolved EGF, the mixture thus obtained was centrifuged and then supernatant was obtained. The concentration of the supernatant thus obtained was measured by using a Bradford method and UV method.

[3] = Circular dichroism after incubation at 60° C.; format: physicochemical; conditions: for Percentage to wild-type EGF (CD signal value at 200 nm): 0.3 mg/ml, 20 mM sodium phosphate pH 5.5, 60° C., five days
Method: The stabilities of wild-type EGF and mutants should be confirmed through being stored at room temperature for a long period of time, but there is a disadvantage in that the time is too long. Therefore, the incubation test was performed at extreme environment for a short period of time. 0.3 mg/ml of each of the wild-type EGF and mutants was dissolved in 20 mM sodium phosphate (pH 5.5), and then subjected to the incubation in a water bath of 60° C. The sampling was performed per 24 hours unit, and then centrifuged at 13000 rpm and 4° C. for 15 minutes to collect the supernatant. The supernatant was diluted with 20 mM sodium phosphate (pH 5.5), and its structure was measured by using a circular dichroism. And then, the supernatant was added to 0.1 cm cell, and its structure was analyzed under the conditions of, in a region of 190 nm to 250 nm, band width 1 nm, response 0.25 sec, data pitch 0.1 nm, scanning speed 20 nm/min, cell length 1 cm, accumulation 8 times, a temperature of 20° C. […] In order to easily confirm such a result, the graph as illustrated in FIG. 3 is used using the ratio of the signal value at a first day to the signal value at 200 nm that has the biggest difference of signals. Table. […] From such a result, it can be confirmed that the EGF mutants prepared in the present invention have excellent thermal stability and solubility.

NIH3T3 cell line = experiment: Test of cell proliferation after incubation in cosmetic basic essence; format: cell-based; conditions: 60° C., 5 days, versus wild-type EGF, FIG. 4
Method: And then, the incubated samples were centrifuged to collect supernatants.

Row | Substance | Structure change [1] | Tm (melting temperature) [1] | Solubility [2] [µg/mL] | Solubility (Comparison with wild-type %) [2] [%] | Percentage to wild-type EGF (CD signal value at 200 nm) [3] [%] | Cell proliferation activity after incubation (NIH3T3 cell line) | Tm (melting temperature) ([1]; listed as Wide type EGF) | CD structure signal over time (in words) ([3]; 60° C., 20 mM sodium phosphate pH 5.5, sampling per 24 hours, compared with the mutants, FIG. 3)
1 | C-25-1: EGF mutant, 25th alanine substituted with serine (SEQ ID NO: 72) (NSDSECPLSHDGYCLHDGVCMYIESLDKYACNCVVGYIGERCQYRDLKWWELR; not fully specified; Epidermal growth factor; UniProt P01133 971-1023, looked up, variant A25S) | No change | (76° C.) | 617.8 | 122 | 106.38 | – | – | –
2 | M3: EGF mutant by fusion of A-8-2, D-38-10, and E-46-2; SEQ ID NO:2 (NSDSECPSSHDGYCLHDGVCMYIEALDKYACNCVVGYCGERCQYRCLKWWELR; not fully specified) | slightly changed; also recorded: Little change | – | 681.7 | 134 | – | higher cell proliferation activity | – | –
3 | Wild-type EGF: human epidermal growth factor, 53 amino acids, SEQ ID NO:1, produced in E. coli (Example 2) [reference compound] | – | 76 °C | 507.3 | 100 | 100 | – | (76° C.) | significantly decreased
